B2: C-terminally biotinylated FHR (residues 25-249, AviTag) (receptor)
chain: NDNLEAELEQTKALCEVAKQLRKLPLLTEERRFEAVGALEESKKAAKEGKKAAKRAEAGAVGGTSEQQQAAKRAREAATVAYEASVRAEAAAMEVKRFARALDSFESEYESVFSGLLRGAAEHGGNETIKQLAKECATAVADDVTPEALTRAAHNLRGLYMQDFAEEYLQEANEAANKLEELQKATAETVRAADAADDAKSEAQEEAAQFPEIDDDDSDEDKEDE
modifications: biotin on the C-terminal AviTag
notes: T. brucei FHR, Tb927.5.4020, residues 25-249, synthetic gene optimized for E. coli in pET15b; TEV site after the His tag; GSGSGSS linker between FHR and the AviTag; also called FHR WT; WT FHR; source: E. coli BL21(DE3), purified (Ni-NTA), biotinylated with BirA; not shown: His6, N-terminal, cleaved; AviTag, C-terminal, kept

What all share (conditions): both partners purified
Experiment [1] deals with B2. The experiment in a line: SPR; biotinylated FHR or mutant on a streptavidin chip (Biacore T-100/T-200), FH proteins flowed over in twofold dilutions; 20 °C, 10 mM HEPES, 150 mM NaCl, 0.005% Tween-20 pH 7.5; kinetic fit: two-state model (bovine FH) or 1:1 model (bovine domains 4-5-6 and 5). A general note: SPR reads the build-up and loss of mass on a sensor chip optically.

Experiment [2] deals with T1, bovine complement factor H from serum (bovine (endogenous in bovine serum), UniProt Q28085 19-1236).
T1 construct: complement factor H, bovine, native serum protein of 145 kDa; also called FH; bovine FH; source: endogenous, bovine serum (Sigma-Aldrich); purified from adult bovine serum (FHR-agarose, eluted with glycine-HCl pH 2.5)
T1 sequence: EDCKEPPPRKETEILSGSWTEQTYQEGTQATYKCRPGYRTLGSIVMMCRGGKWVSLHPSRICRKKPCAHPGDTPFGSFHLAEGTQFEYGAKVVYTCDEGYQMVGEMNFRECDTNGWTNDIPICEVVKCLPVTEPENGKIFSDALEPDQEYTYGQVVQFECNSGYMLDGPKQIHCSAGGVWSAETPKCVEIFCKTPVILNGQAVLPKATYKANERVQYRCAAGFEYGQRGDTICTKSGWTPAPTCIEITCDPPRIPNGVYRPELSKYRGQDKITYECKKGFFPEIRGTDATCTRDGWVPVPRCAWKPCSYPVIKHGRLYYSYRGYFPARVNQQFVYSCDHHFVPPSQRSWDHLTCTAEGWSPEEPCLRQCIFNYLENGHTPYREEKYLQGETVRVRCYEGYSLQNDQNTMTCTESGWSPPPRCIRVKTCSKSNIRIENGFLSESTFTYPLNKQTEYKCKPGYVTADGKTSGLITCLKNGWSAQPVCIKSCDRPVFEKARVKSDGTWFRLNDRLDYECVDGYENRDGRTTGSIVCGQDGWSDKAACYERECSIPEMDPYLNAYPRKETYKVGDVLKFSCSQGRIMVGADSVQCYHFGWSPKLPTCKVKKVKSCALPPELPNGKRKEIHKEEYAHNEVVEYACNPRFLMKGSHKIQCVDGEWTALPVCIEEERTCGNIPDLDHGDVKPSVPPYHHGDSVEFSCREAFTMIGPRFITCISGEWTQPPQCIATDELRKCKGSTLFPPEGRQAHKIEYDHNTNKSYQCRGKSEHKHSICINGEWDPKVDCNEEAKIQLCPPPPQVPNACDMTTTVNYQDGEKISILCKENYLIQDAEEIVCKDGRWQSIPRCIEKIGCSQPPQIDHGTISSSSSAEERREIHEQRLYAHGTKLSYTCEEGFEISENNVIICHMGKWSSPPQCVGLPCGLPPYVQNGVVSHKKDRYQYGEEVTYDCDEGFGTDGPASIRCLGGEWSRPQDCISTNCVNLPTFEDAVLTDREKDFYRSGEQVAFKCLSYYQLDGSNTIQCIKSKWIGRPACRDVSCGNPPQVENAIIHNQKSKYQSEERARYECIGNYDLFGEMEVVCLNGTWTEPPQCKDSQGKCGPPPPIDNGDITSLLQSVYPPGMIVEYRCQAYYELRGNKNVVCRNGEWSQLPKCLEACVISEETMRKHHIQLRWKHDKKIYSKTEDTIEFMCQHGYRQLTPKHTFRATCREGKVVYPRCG
Described as above.

Experiment [3] deals with T2, recombinant bovine FH, complete (residues 18-1236) (bovine, UniProt Q28085 18-1236).
T2 construct: complement factor H, bovine, complete (residues 18-1236); pDest12; CD33 signal peptide, then 10xHis, AviTag, GSGSGS linker and a TEV site before the ORF; also called full-length bovine FH; recombinant FH; source: G22 CHO cells, secreted, purified (Ni-NTA)
T2 sequence (looked up): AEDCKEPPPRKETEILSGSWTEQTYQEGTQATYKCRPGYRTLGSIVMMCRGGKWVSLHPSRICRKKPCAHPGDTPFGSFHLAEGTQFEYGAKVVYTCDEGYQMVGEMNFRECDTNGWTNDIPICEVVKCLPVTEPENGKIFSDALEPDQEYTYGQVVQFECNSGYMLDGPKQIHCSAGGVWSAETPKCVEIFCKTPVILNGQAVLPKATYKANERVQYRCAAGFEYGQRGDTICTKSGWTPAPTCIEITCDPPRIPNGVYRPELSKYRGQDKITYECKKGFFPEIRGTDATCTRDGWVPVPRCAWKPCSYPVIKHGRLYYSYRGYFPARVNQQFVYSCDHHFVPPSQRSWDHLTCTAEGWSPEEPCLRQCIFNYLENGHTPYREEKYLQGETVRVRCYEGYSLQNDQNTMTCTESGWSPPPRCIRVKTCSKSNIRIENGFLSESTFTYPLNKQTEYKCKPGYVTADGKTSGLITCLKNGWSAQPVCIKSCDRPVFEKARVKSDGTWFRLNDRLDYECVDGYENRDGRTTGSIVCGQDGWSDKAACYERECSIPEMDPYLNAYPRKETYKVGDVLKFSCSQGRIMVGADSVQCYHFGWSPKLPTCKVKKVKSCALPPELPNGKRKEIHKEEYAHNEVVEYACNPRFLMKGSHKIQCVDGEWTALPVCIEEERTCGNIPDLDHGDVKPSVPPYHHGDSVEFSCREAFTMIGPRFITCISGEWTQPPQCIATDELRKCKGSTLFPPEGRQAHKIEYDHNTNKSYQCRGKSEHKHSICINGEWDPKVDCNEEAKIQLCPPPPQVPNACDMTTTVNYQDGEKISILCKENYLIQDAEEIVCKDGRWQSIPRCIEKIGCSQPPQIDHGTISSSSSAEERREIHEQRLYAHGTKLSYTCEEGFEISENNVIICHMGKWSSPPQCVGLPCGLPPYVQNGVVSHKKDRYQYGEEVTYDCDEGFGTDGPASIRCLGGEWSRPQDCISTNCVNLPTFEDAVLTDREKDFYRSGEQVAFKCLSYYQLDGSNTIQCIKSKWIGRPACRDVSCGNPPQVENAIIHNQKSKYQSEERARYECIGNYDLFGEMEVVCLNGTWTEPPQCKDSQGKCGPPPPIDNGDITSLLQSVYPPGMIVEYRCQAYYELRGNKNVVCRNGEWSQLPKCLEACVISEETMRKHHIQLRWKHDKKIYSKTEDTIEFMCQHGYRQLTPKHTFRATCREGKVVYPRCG
Described as above.

For experiment [4], the target named is B2. In words: SPR; biotinylated FHR or mutant 2 on a streptavidin chip, mouse or human FH domains 4-5-6 flowed over; 20 °C, 10 mM HEPES, 150 mM NaCl, 0.005% Tween-20 pH 7.5; steady-state analysis.

These results are taken from publication PMC7067766, “A receptor for the complement regulator factor H increases transmission of trypanosomes to tsetse flies” (Nature Communications, 2020).

B1: bovine FH domain 5 (residues 264-323), as used in SPR (domain or fragment, UniProt Q28085 264-323, looked up)
chain: EITCDPPRIPNGVYRPELSKYRGQDKITYECKKGFFPEIRGTDATCTRDGWVPVPRCAWK
notes: complement factor H, bovine, domain 5 (residues 264-323); N-terminal tags, a TEV site and an extra serine-glycine linker before domain 5; also called domain 5 alone; source: G22 CHO cells, secreted, purified (Ni-NTA)
The Kd is the equilibrium constant for the complex coming apart. As to B1, binding in experiment [1] was characterised by a dissociation constant (Kd) of 562 nM.

Consider B2, for which the Kd in experiment [2] came out at 153 nM; in experiment [3], 114 nM.

B3: human FH domains 4-5-6 (residues 207-387) (domain or fragment)
chain: not shown
notes: complement factor H, human, domains 4-5-6 (residues 207-387); pDest12; CD33 signal peptide, ORF, C-terminal GSGSGS linker, AviTag and 10xHis; also called human domains 4-5-6; source: G22 CHO cells, secreted, purified (Ni-NTA)
Turning to B3, the Kd in experiment [4] came out at 8700 nM.

B4: mouse FH domains 4-5-6 (residues 207-387) (domain or fragment, UniProt P06909 207-387, looked up)
chain: EILCTPPRVENGDGINVKPVYKENERYHYKCKHGYVPKERGDAVCTGSGWSSQPFCEEKRCSPPYILNGIYTPHRIIHRSDDEIRYECNYGFYPVTGSTVSKCTPTGWIPVPRCTLKPCEFPQFKYGRLYYEESLRPNFPVSIGNKYSYKCDNGFSPPSGYSWDYLRCTAQGWEPEVPCVR
notes: complement factor H, mouse, domains 4-5-6 (residues 207-387); pDest12; CD33 signal peptide, ORF, C-terminal GSGSGS linker, AviTag and 10xHis; also called mouse domains 4-5-6; source: G22 CHO cells, secreted, purified (Ni-NTA)
The molecule B4 came in with a Kd in experiment [4] of 12000 nM.

B5: bovine FH domains 4-5-6 (residues 207-385) (domain or fragment, UniProt Q28085 207-385, looked up)
chain: EIFCKTPVILNGQAVLPKATYKANERVQYRCAAGFEYGQRGDTICTKSGWTPAPTCIEITCDPPRIPNGVYRPELSKYRGQDKITYECKKGFFPEIRGTDATCTRDGWVPVPRCAWKPCSYPVIKHGRLYYSYRGYFPARVNQQFVYSCDHHFVPPSQRSWDHLTCTAEGWSPEEPCLR
notes: complement factor H, bovine, domains 4-5-6 (residues 207-385); pDest12; CD33 signal peptide, ORF, C-terminal GSGSGS linker, AviTag and 10xHis; source: G22 CHO cells, secreted, purified (Ni-NTA)
B5: the Kd in experiment [1] is 167 nM.
